According to PMC7517009, “Variants of the human RAD52 gene confer defects in ionizing radiation resistance and homologous recombination repair in budding yeast” (Microbial Cell, 2020):
Several values for one entry are separate records, joined by “and”; a condition that tells them apart may be missing. Identical values can stand only once.

Columns and labels:
[1] = target: the molecule itself; test: two-hybrid; Gal4 DNA-binding domain (pGBT9) and Gal4 transcription activation domain (pGAD424) fusions in yeast strain Y187; beta-galactosidase specific activity in cell extracts, Miller units
[2] = target: the molecule itself; test: SEC; Superdex 200 in 10 mM Tris HCl, 300 mM NaCl, 2 mM BME, pH 8.0, 0.5 mL/min; size of the multimer estimated from the elution volume

B1: HsRAD52 (human RAD52), wild type, Gal4 fusion proteins (natural protein, UniProt P43351 1-418, looked up)
chain: MSGTEEAILGGRDSHPAAGGGSVLCFGQCQYTAEEYQAIQKALRQRLGPEYISSRMAGGGQKVCYIEGHRVINLANEMFGYNGWAHSITQQNVDFVDLNNGKFYVGVCAFVRVQLKDGSYHEDVGYGVSEGLKSKALSLEKARKEAVTDGLKRALRSFGNALGNCILDKDYLRSLNKLPRQLPLEVDLTKAKRQDLEPSVEEARYNSCRPNMALGHPQLQQVTSPSRPSHAVIPADQDCSSRSLSSSAVESEATHQRKLRQKQLQQQFRERMEKQQVRVSTPSAEKSEAAPPAPPVTHSTPVTVSEPLLEKDFLAGVTQELIKTLEDNSEKWAVTPDAGDGVVKPSSRADPAQTSDTLALNNQMVTQNRTPHSVCHQKPQAKSGSWDLQTYSADQRTTGNWESHRKSQDMKKRKYDPS
notes: RAD52, human, wild type; no chain carries both; Probably the whole protein; also called pGBT9-HsRAD52; pGAD424-HsRAD52; source: yeast two-hybrid fusion, yeast strain Y187
beta-galactosidase activity, fold above background [1]: 80 fold

B2: HsRAD52_(1-212), the N-terminal 212 amino acids of HsRAD52 (domain or fragment, human, UniProt P43351 1-212, looked up)
chain: MSGTEEAILGGRDSHPAAGGGSVLCFGQCQYTAEEYQAIQKALRQRLGPEYISSRMAGGGQKVCYIEGHRVINLANEMFGYNGWAHSITQQNVDFVDLNNGKFYVGVCAFVRVQLKDGSYHEDVGYGVSEGLKSKALSLEKARKEAVTDGLKRALRSFGNALGNCILDKDYLRSLNKLPRQLPLEVDLTKAKRQDLEPSVEEARYNSCRPNM
notes: RAD52, human, N-terminal 212 amino acids (1-212); pET28b construct; also called pLAY855; source: E. coli Artic Express, purified (Ni-NTA, heparin, Superdex 200)
stoichiometry N [2]: 13 subunits and 14 subunits

B3: HsRAD52-G59R_(1-212), the N-terminal 212 amino acids of HsRAD52-G59R (domain or fragment, human, UniProt P43351 1-212, looked up)
chain: MSGTEEAILGGRDSHPAAGGGSVLCFGQCQYTAEEYQAIQKALRQRLGPEYISSRMAGRGQKVCYIEGHRVINLANEMFGYNGWAHSITQQNVDFVDLNNGKFYVGVCAFVRVQLKDGSYHEDVGYGVSEGLKSKALSLEKARKEAVTDGLKRALRSFGNALGNCILDKDYLRSLNKLPRQLPLEVDLTKAKRQDLEPSVEEARYNSCRPNM
notes: RAD52, human, N-terminal 212 amino acids (1-212) with the naturally occurring variant G59R; pET28b construct; also called pLAY971; source: E. coli Artic Express, purified (Ni-NTA, heparin, Superdex 200)
stoichiometry N [2]: 13 subunits and 14 subunits

B4: HsRAD52-S346X, His-tagged, bacterially expressed (domain or fragment, human, UniProt P43351 1-345, looked up)
chain: MSGTEEAILGGRDSHPAAGGGSVLCFGQCQYTAEEYQAIQKALRQRLGPEYISSRMAGGGQKVCYIEGHRVINLANEMFGYNGWAHSITQQNVDFVDLNNGKFYVGVCAFVRVQLKDGSYHEDVGYGVSEGLKSKALSLEKARKEAVTDGLKRALRSFGNALGNCILDKDYLRSLNKLPRQLPLEVDLTKAKRQDLEPSVEEARYNSCRPNMALGHPQLQQVTSPSRPSHAVIPADQDCSSRSLSSSAVESEATHQRKLRQKQLQQQFRERMEKQQVRVSTPSAEKSEAAPPAPPVTHSTPVTVSEPLLEKDFLAGVTQELIKTLEDNSEKWAVTPDAGDGVVKP
notes: RAD52, human, naturally occurring truncating variant S346X (stop codon in place of S346); pET28b construct; also called pLAY970; source: E. coli Artic Express, purified (Ni-NTA, heparin, Superdex 200)
stoichiometry N [2]: ~6 subunits and ~8 subunits
